Experimental data published in the supplement of paper PMC10724198.
± gives the standard deviation of the averaged measurements.

Test system: Saccharomyces cerevisiae
Assay: protein stability index of tFT-peptide fusion (C-terminal peptide) (PSI (0-1 scale)); higher = more stable (slower turnover)
Conditions: genetic background: wild type; temperature: 30 C
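Further: PSI is a weighted mean of sequencing reads over stability bins, variants kept only with over 10 reads, mCherry proximal and sfGFP distal, peptide attached via GGGS linker.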

| Sequence | protein stability index |
| --- | --- |
| PPPPPPPPPPPP | 0.627 ± 0.031 |
| SPPSFLPLPLPS | 0.675 ± 0.033 |
| ILEGFRHVSPVG | 0.717 ± 0.085 |
| SASVARSRRCVR | 0.612 ± 0.057 |
| DSLTNAELVFAC | 0.607 ± 0.0068 |
| RSMLRVELSGVA | 0.562 ± 0.031 |
| ASSPAPPSPTPP | 0.7 ± 0.05 |
| SEVGLSFGLVSF | 0.719 ± 0.032 |
| RKKVRKTKKIKK | 0.628 ± 0.089 |
| STQDIRTTKRVA | 0.681 ± 0.077 |
| VYHCRLSQHRTL | 0.717 ± 0.034 |
| PAFCLTRAPSTQ | 0.72 ± 0.071 |
| MQLREIIMIEKS | 0.693 ± 0.043 |
| SLSIFTSFLVLF | 0.598 ± 0.021 |
| PPARTPPGLPRP | 0.723 ± 0.29 |
| VGVGRAALRWYG | 0.6716 ± 0.0035 |
| PPPLLPPHLPLL | 0.717 ± 0.032 |
| EIRGGDMGEWRE | 0.715 ± 0.027 |
| WRVDKREPPGRL | 0.707 ± 0.034 |
| GGGAGVRKWRKG | 0.703 ± 0.058 |
| PLPPPRSSPVSS | 0.658 ± 0.04 |
| GPYDLPCLPLSA | 0.633 ± 0.014 |
| GLKTLQTCRIIR | 0.691 ± 0.054 |
| PSGPKAPPHAGR | 0.6757 ± 0.0058 |
| GVVGDGGRLSGD | 0.667 ± 0.022 |
| PLSPPLPPAIPS | 0.698 ± 0.063 |

| Sequence | protein stability index |
| --- | --- |
| LGIVSLDWLWLR | 0.513 ± 0.043 |
| CMRVHPGHPFPY | 0.633 ± 0.06 |
| LYTENSDLDRVF | 0.657 ± 0.039 |
| FSETDSWCQARS | 0.717 ± 0.013 |
| GTGQSRAEGARP | 0.672 ± 0.015 |
| IIKPPDIQQSRQ | 0.739 ± 0.026 |
| QIVDHCLVWLRG | 0.628 ± 0.0066 |
| GEFARSTRLAWV | 0.682 ± 0.027 |
| WGGRSWGLRRGC | 0.664 ± 0.028 |
| QNRKELVERPKR | 0.702 ± 0.017 |
| PPTLHVSPLCPL | 0.607 ± 0.013 |
| PVPADGPSPPQP | 0.721 ± 0.035 |
| IVSPSYGEGSIR | 0.695 ± 0.026 |
| YSTYGGGYFMAF | 0.668 ± 0.031 |
| RLGGGGVGVAGV | 0.679 ± 0.00083 |
| PRLVFSVSSLGL | 0.7 ± 0.038 |
| VSCHSPPVPHDP | 0.702 ± 0.011 |
| RCSKFRKFFKHR | 0.6565 ± 0.0031 |
| PPRLASFYIILG | 0.571 |
| SRKCLPPLQLWS | 0.759 ± 0.067 |
| SGYYTRVFICEV | 0.618 ± 0.025 |
| VFPPLSRLLPGP | 0.699 ± 0.1 |
| MKGELRHRWCPL | 0.71 ± 0.046 |
| PSPGPPATRPAL | 0.719 ± 0.0036 |
| VVVRVAEGGGRW | 0.666 ± 0.047 |
| LSPGRPPRPPRR | 0.702 ± 0.041 |

| Sequence | protein stability index |
| --- | --- |
| LTLADWYRIPVI | 0.558 ± 0.051 |
| GSTNNHEVTENI | 0.688 ± 0.013 |
| GEQSYGGHSVQT | 0.642 ± 0.054 |
| GAQSAVLQNPPA | 0.6238 ± 0.0042 |
| YLKVNDELERRR | 0.695 ± 0.05 |
| KNKRTQKKKRKK | 0.7299 ± 0.0016 |
| KSVAKLGHGGSP | 0.677 ± 0.064 |
| AALVFPSCVVGG | 0.60949 ± 0.00034 |
| DVVFVARGRAND | 0.7002 ± 0.0037 |
| RLKGSPHPVFLY | 0.753 ± 0.055 |
| GNAKKRKNKEKK | 0.651 ± 0.09 |
| SGIYQTTSYIKI | 0.7505 ± 0.0029 |
| SPPPLPPPPPSP | 0.68 ± 0.036 |
| FRSFLDHPRSPC | 0.729 ± 0.029 |
| SWTGDGWMWRRR | 0.658 ± 0.019 |
| VLVSGRCCRCGF | 0.701 ± 0.048 |
| KCKLNDTETMGK | 0.693 ± 0.026 |
| RSRAYDSLPADQ | 0.682 ± 0.058 |
| GVFGLMVGWGWA | 0.665 ± 0.083 |
| QCIRLFCPLVSL | 0.587 ± 0.014 |
| LRSIQVHLGSTA | 0.6992 ± 0.0043 |
| RLASPSIISSTL | 0.702 ± 0.0076 |
| TRTCGRRRAGGR | 0.633 ± 0.1 |
| FACAGPAAFHSL | 0.597 ± 0.014 |
| GWLGVRVCLAQR | 0.616 ± 0.0081 |
| MVARFGNEFMFL | 0.695 ± 0.057 |

| Sequence | protein stability index |
| --- | --- |
| DHHGGTEPHRVP | 0.7079 ± 0.0052 |
| FILERSLLSLQG | 0.678 ± 0.18 |
| PYIKDRYSPANN | 0.781 ± 0.062 |
| DILCRILLRPKG | 0.63 ± 0.031 |
| SVARGGGVVEWG | 0.705 ± 0.13 |
| LWFVGVAGFSLV | 0.5715 ± 0.004 |
| PPPPPRHPSSPP | 0.71068 ± 0.00014 |
| FVGAEWLLFYFS | 0.677 ± 0.069 |
| PHRLPPLPNPLH | 0.693 ± 0.082 |
| LGGARWSGLPHV | 0.707 ± 0.085 |
| SGCVLCLCCYMV | 0.666 ± 0.015 |
| IPRPFRSLPFLP | 0.7307 ± 0.0047 |
| VAAGGTVSPSSQ | 0.653 ± 0.057 |
| SAPPLPPPPPPP | 0.682 ± 0.016 |
| CVFSCLLATVFL | 0.533 ± 0.026 |
| REKKDKKNSKKI | 0.701 ± 0.022 |
| GWRGVGVGGGVC | 0.689 ± 0.017 |
| PFSIVRRSSFAP | 0.659 ± 0.082 |
| SMRFLGIKLKKY | 0.648 ± 0.023 |
| PSLPPVPPPPRP | 0.71 ± 0.04 |
| PHAPTAGPFPLP | 0.783 ± 0.021 |
| PPLLPRLLTPTP | 0.671 ± 0.087 |
| PPPLLPPTLPPR | 0.713 ± 0.047 |
| PRYSLPTLLSSR | 0.678 ± 0.051 |
| LRLLYGYWGKFL | 0.547 ± 0.0072 |
| PPLVHPCPSSHI | 0.801 ± 0.088 |

| Sequence | protein stability index |
| --- | --- |
| GTWEGDTSACAR | 0.636 ± 0.047 |
| FFFLCLPSSFAF | 0.614 ± 0.0098 |
| VSNVSDSGHPYL | 0.6777 ± 0.0021 |
| CVLAPPHRRAPS | 0.699 ± 0.031 |
| RSSSGANLQTTL | 0.6517 ± 0.0031 |
| KKKKIIKKKNIK | 0.77 ± 0.069 |
| GTVGTGFGGGVE | 0.677 ± 0.12 |
| LEGYFMLPRSAW | 0.736 ± 0.065 |
| GVIRGNRLELIV | 0.618 ± 0.025 |
| CLLPFCFLSHIF | 0.585 ± 0.04 |
| WVGGGLVVFGWK | 0.6944 ± 0.0025 |
| LSWLSLSSNSRL | 0.798 ± 0.019 |
| LRGEGPGRKGGA | 0.67 ± 0.05 |
| EHKRQRPVTRLP | 0.672 ± 0.016 |
| PCLLANFFFFPA | 0.653 ± 0.09 |
| SPFPPLPSRPPP | 0.676 ± 0.0097 |
| FQGALFTEVVES | 0.716 ± 0.043 |
| IRQPNHSIGPHG | 0.719 ± 0.024 |
| VVGSWGRGGCGG | 0.639 ± 0.0017 |
| VALVCFAAGWLW | 0.507 ± 0.037 |
| QRARDSLVQTRH | 0.681 ± 0.032 |
| GQRRDSSSEVWG | 0.67 ± 0.017 |
| LRLRGCSATVPG | 0.752 ± 0.063 |
| VVRLGGVSWAGG | 0.649 ± 0.016 |
| PPPPPPRFHALH | 0.715 ± 0.021 |
| RKKRNKTKIEKR | 0.719 ± 0.021 |

| Sequence | protein stability index |
| --- | --- |
| DFVESKVCSCSV | 0.666 ± 0.01 |
| SPPPPLTSLVPP | 0.688 ± 0.075 |
| IDVLTGTDAGPT | 0.6278 ± 0.004 |
| PPPPPPLVLSPL | 0.678 ± 0.02 |
| GPRGWRASVWAG | 0.687 ± 0.07 |
| LNSSRLSFFCLE | 0.689 ± 0.079 |
| PPSWLPLLPPPP | 0.688 ± 0.078 |
| PPSLPRPPAFAP | 0.689 ± 0.023 |
| RLYGILLLSGKE | 0.683 ± 0.019 |
| GWWGGGGGAWSG | 0.697 ± 0.065 |
| LGGGAGAGYWVG | 0.741 ± 0.032 |
| TGSIMYDLEVDK | 0.6795 ± 0.0039 |
| SFPPVSSLSFSP | 0.707 ± 0.048 |
| PRPFAPPPPPHD | 0.808 ± 0.094 |
| PLPPPLLPRTRL | 0.694 ± 0.11 |
| PPSLPPPPLSQP | 0.68 ± 0.026 |
| GGWGWEGRGGSG | 0.677 ± 0.014 |
| FVPPGTTSPNTT | 0.731 ± 0.059 |
| NKTRRCTAHVGG | 0.679 ± 0.054 |
| DKKEEEKKSTKH | 0.70302 ± 0.00026 |
| VWGGGGVTVWLV | 0.6149 ± 0.0054 |
| GIKQEMKYQVGK | 0.665 ± 0.07 |
| PPAPPPVSPPRP | 0.7075 ± 0.0027 |
| RGRCLGAESRGG | 0.767 ± 0.069 |
| FGGGSHRRGRCR | 0.68 ± 0.018 |
| IINKRKKKKDKG | 0.644 ± 0.019 |

| Sequence | protein stability index |
| --- | --- |
| HYSPLPSLPPLP | 0.684 ± 0.077 |
| GKSLIKRYANKI | 0.7436 ± 0.0019 |
| LFGHMENNLLKS | 0.722 ± 0.046 |
| RRNSAGCRLDKM | 0.662 ± 0.09 |
| QPLPLPSPPPPA | 0.741 ± 0.058 |
| RLVRSPSRFSWR | 0.667 ± 0.031 |
| PPPSPPPPPSLP | 0.669 ± 0.019 |
| LSYCVGFFSLVG | 0.6459 ± 0.0012 |
| IARTGLGIIIKI | 0.663 ± 0.054 |
| PSRSLSPSPPFS | 0.691 ± 0.066 |
| APRPPPCPRPGT | 0.7499 ± 0.003 |
| LRPSLPCPPFCP | 0.641 ± 0.057 |
| GGGGGGPGGVLK | 0.706 ± 0.092 |
| SRPLPLPPRPLP | 0.647 ± 0.023 |
| CSRSPASAPRPH | 0.688 ± 0.018 |
| SSLLLPALSPSV | 0.647 ± 0.077 |
| LYGILSCNSGCG | 0.672 ± 0.035 |
| IKKLYIICQQMK | 0.666 ± 0.035 |
| VPPPALPPCPAF | 0.723 ± 0.037 |
| PFAPPPRPGPFP | 0.697 ± 0.085 |
| TRSLPSSSSHSL | 0.727 ± 0.011 |
| ALLPVLPSRPAP | 0.7431 ± 0.0046 |
| LRPLPPRHPPAP | 0.624 ± 0.069 |
| LKELDTGVEQDE | 0.671 ± 0.0096 |
| SLDRASPPTSVA | 0.625 ± 0.0007 |
| PPAPPPPPPSPP | 0.659 ± 0.029 |

| Sequence | protein stability index |
| --- | --- |
| CLLRPTPRPATP | 0.779 ± 0.036 |
| LSPLPTPLRPNS | 0.68 ± 0.025 |
| RRLATRMGPCDA | 0.682 ± 0.011 |
| VHWAALRSVLRG | 0.699 ± 0.047 |
| VVGAVSASLAGV | 0.662 ± 0.056 |
| CYGAYLVSQWGS | 0.697 ± 0.028 |
| PPPLACLPLSLR | 0.71 ± 0.043 |
| VSADGAGCAVRG | 0.709 ± 0.052 |
| SKSCIVSNVLVY | 0.511 ± 0.014 |
| RVHEMSLGPIRL | 0.715 ± 0.036 |
| YVPTPSRPRRNR | 0.718 ± 0.066 |
| VPDGPAHIPLPL | 0.683 ± 0.065 |
| VCDIRSFALWYA | 0.8 ± 0.024 |
| SPPSHPHRPTFP | 0.753 ± 0.28 |
| RLPVPAAFSSSI | 0.79 ± 0.047 |
| SRPPPPSIYLSI | 0.6912 ± 0.0021 |
| KQLGMTCRYISK | 0.692 ± 0.022 |
| GFPRSPALCSQP | 0.689 ± 0.017 |
| SPRISSCSPFDS | 0.726 ± 0.036 |
| ARCLTGFYSFTF | 0.794 ± 0.019 |
